{
  "source": "the supplement of paper PMC10567573",
  "parents": {"B1": {"name": "TOR1AIP2 (parent)", "chain": "YKYCDHENAAFKDVALVLTVLLEE"}},
  "data": [
    {"variants_of": "B1", "assay": "protein stability index of a GFP-peptide fusion (GPS, HEK-293T) (PSI 1-6); higher = more stable", "details": "c terminus: a fixed tail appended", "values": [
      {"variant": "YKYCDHENAAFKDVALFLTVLLEE", "note": "[V17F]", "protein stability index": 2.66},
      {"variant": "YKYCDHENAAFKDVALMLTVLLEE", "note": "[V17M]", "protein stability index": 1.94},
      {"variant": "YKYCDHENAAFKDVALQLTVLLEE", "note": "[V17Q]", "protein stability index": 1.84},
      {"variant": "YKYCDHENAAFKDVALYLTVLLEE", "note": "[V17Y]", "protein stability index": 3.19},
      {"variant": "YKYCDHENAAFKDVALGLTVLLEE", "note": "[V17G]", "protein stability index": 2.05},
      {"variant": "YKYCDHENAAFKDVALDLTVLLEE", "note": "[V17D]", "protein stability index": 2.23},
      {"variant": "YKYCDHENAAFKDVALNLTVLLEE", "note": "[V17N]", "protein stability index": 2.3},
      {"variant": "YKYCDHENAAFKDVALPLTVLLEE", "note": "[V17P]", "protein stability index": 3.33},
      {"variant": "YKYCDHENAAFKDVALELTVLLEE", "note": "[V17E]", "protein stability index": 2.51},
      {"variant": "YKYCDHENAAFKDVALWLTVLLEE", "note": "[V17W]", "protein stability index": 2.31},
      {"variant": "YKYCDHENAAFKDVALKLTVLLEE", "note": "[V17K]", "protein stability index": 1.89},
      {"variant": "YKYCDHENAAFKDVALSLTVLLEE", "note": "[V17S]", "protein stability index": 3.6},
      {"variant": "YKYCDHENAAFKDVALRLTVLLEE", "note": "[V17R]", "protein stability index": 1.73},
      {"variant": "YKYCDHENAAFKDVALALTVLLEE", "note": "[V17A]", "protein stability index": 3.79},
      {"variant": "YKYCDHENAAFQDVALVLTVLLEE", "note": "[K12Q]", "protein stability index": 3.33},
      {"variant": "YKYCDHENAAFADVALVLTVLLEE", "note": "[K12A]", "protein stability index": 3.1},
      {"variant": "YKYCDHENAAFDDVALVLTVLLEE", "note": "[K12D]", "protein stability index": 1.81},
      {"variant": "YKYCDHENAAFYDVALVLTVLLEE", "note": "[K12Y]", "protein stability index": 2.97},
      {"variant": "YKYCDHENAAFCDVALVLTVLLEE", "note": "[K12C]", "protein stability index": 4.02},
      {"variant": "YKYCDHENAAFKDVALVLTVLLEA", "note": "[E24A]", "protein stability index": 2.84},
      {"variant": "YKYCDHENAAFKDVALVLTVLLEF", "note": "[E24F]", "protein stability index": 3.27},
      {"variant": "YKYCDHENAAFKDVALVLTVLLEI", "note": "[E24I]", "protein stability index": 3.78},
      {"variant": "YKYCDHENAAFKDVALVLTVLLER", "note": "[E24R]", "protein stability index": 3.2},
      {"variant": "YKYCDHENAAFKDVALVLTVLLED", "note": "[E24D]", "protein stability index": 2.86},
      {"variant": "YKYCDHENAAFKDVALVLTVLLEH", "note": "[E24H]", "protein stability index": 3.71},
      {"variant": "YKYCDHENAAFKDVALVLTVLLES", "note": "[E24S]", "protein stability index": 3.26},
      {"variant": "YKYCDHENAAFKDVALVLTVLLEN", "note": "[E24N]", "protein stability index": 3.74},
      {"variant": "YKYCDHENAAFKDVALVLTVLLEY", "note": "[E24Y]", "protein stability index": 2.58},
      {"variant": "YKYCDHENAAFKDVALVLTVLLEK", "note": "[E24K]", "protein stability index": 2.19},
      {"variant": "YKYCDHENAAFKEVALVLTVLLEE", "note": "[D13E]", "protein stability index": 2.46},
      {"variant": "YKYCDHENAAFKGVALVLTVLLEE", "note": "[D13G]", "protein stability index": 1.75},
      {"variant": "YKYCDHENAAFKTVALVLTVLLEE", "note": "[D13T]", "protein stability index": 2.09},
      {"variant": "YKYCDHENAAFKFVALVLTVLLEE", "note": "[D13F]", "protein stability index": 2.83},
      {"variant": "YKYCDHENAAFKQVALVLTVLLEE", "note": "[D13Q]", "protein stability index": 2.66},
      {"variant": "YKYCDHENAAFKCVALVLTVLLEE", "note": "[D13C]", "protein stability index": 2.1},
      {"variant": "YKYCDHENAAFKSVALVLTVLLEE", "note": "[D13S]", "protein stability index": 2.91},
      {"variant": "YKYCDHENAAFKYVALVLTVLLEE", "note": "[D13Y]", "protein stability index": 4.52},
      {"variant": "YKYCDHENAAFKLVALVLTVLLEE", "note": "[D13L]", "protein stability index": 3.1},
      {"variant": "YKYCDHENAACKDVALVLTVLLEE", "note": "[F11C]", "protein stability index": 1.03},
      {"variant": "YKYCDHENAASKDVALVLTVLLEE", "note": "[F11S]", "protein stability index": 2.04},
      {"variant": "YKYCDHENAAKKDVALVLTVLLEE", "note": "[F11K]", "protein stability index": 1.2},
      {"variant": "YKYCDHENAAGKDVALVLTVLLEE", "note": "[F11G]", "protein stability index": 3.68},
      {"variant": "YKYCDHENAATKDVALVLTVLLEE", "note": "[F11T]", "protein stability index": 1.49},
      {"variant": "YKYCDHENAAIKDVALVLTVLLEE", "note": "[F11I]", "protein stability index": 1.07},
      {"variant": "YKYCDHENAAAKDVALVLTVLLEE", "note": "[F11A]", "protein stability index": 2.73},
      {"variant": "YKYCDHENAAQKDVALVLTVLLEE", "note": "[F11Q]", "protein stability index": 2.6},
      {"variant": "YKYCDHENAANKDVALVLTVLLEE", "note": "[F11N]", "protein stability index": 1.38},
      {"variant": "YKYCDHENAAHKDVALVLTVLLEE", "note": "[F11H]", "protein stability index": 2.44},
      {"variant": "YKYCDHENAAYKDVALVLTVLLEE", "note": "[F11Y]", "protein stability index": 2.67},
      {"variant": "YKYCDHENAAFKDVALVLTVLAEE", "note": "[L22A]", "protein stability index": 3.63},
      {"variant": "YKYCDHENAAFKDVALVLTVLHEE", "note": "[L22H]", "protein stability index": 2.53},
      {"variant": "YKYCDHENAAFKDVALVLTVLYEE", "note": "[L22Y]", "protein stability index": 3.23},
      {"variant": "YKYCDHENAAFKDVALVLTVLDEE", "note": "[L22D]", "protein stability index": 2.07},
      {"variant": "YKYCDHENAAFKDVALVLTVLQEE", "note": "[L22Q]", "protein stability index": 1},
      {"variant": "YKYCDHENAAFKDVALVLTVLREE", "note": "[L22R]", "protein stability index": 2.7},
      {"variant": "YKYCDHENAAFKDVALVLTVLSEE", "note": "[L22S]", "protein stability index": 1.12},
      {"variant": "YKYCDHENAAFKDVALVLTVLNEE", "note": "[L22N]", "protein stability index": 3.49},
      {"variant": "YKYCDHEYAAFKDVALVLTVLLEE", "note": "[N8Y]", "protein stability index": 2.07},
      {"variant": "YKYCDHENAAFKDPALVLTVLLEE", "note": "[V14P]", "protein stability index": 1.88},
      {"variant": "YKYCDHENAAFKDRALVLTVLLEE", "note": "[V14R]", "protein stability index": 1.54},
      {"variant": "YKYCDHENAAFKDHALVLTVLLEE", "note": "[V14H]", "protein stability index": 1.4},
      {"variant": "YKYCDHENAAFKDEALVLTVLLEE", "note": "[V14E]", "protein stability index": 1.57},
      {"variant": "YKYCDHENAAFKDDALVLTVLLEE", "note": "[V14D]", "protein stability index": 1.46},
      {"variant": "YKYCDHENAAFKDIALVLTVLLEE", "note": "[V14I]", "protein stability index": 2.17},
      {"variant": "YKYCDHENAAFKDCALVLTVLLEE", "note": "[V14C]", "protein stability index": 1.65},
      {"variant": "YKYCDHENAAFKDTALVLTVLLEE", "note": "[V14T]", "protein stability index": 1},
      {"variant": "YKYCDHENAAFKDLALVLTVLLEE", "note": "[V14L]", "protein stability index": 4.94},
      {"variant": "YKYCDHENAAFKDAALVLTVLLEE", "note": "[V14A]", "protein stability index": 2.48},
      {"variant": "YKYCDHENAAFKDKALVLTVLLEE", "note": "[V14K]", "protein stability index": 2.12},
      {"variant": "YKYCDHENAAFKDVTLVLTVLLEE", "note": "[A15T]", "protein stability index": 3.21},
      {"variant": "YKYCDHENAAFKDVSLVLTVLLEE", "note": "[A15S]", "protein stability index": 2.69},
      {"variant": "YKYCDHENAAFKDVELVLTVLLEE", "note": "[A15E]", "protein stability index": 1},
      {"variant": "YKYCDHENAAFKDVGLVLTVLLEE", "note": "[A15G]", "protein stability index": 3.58},
      {"variant": "YKYCDHENAAFKDVILVLTVLLEE", "note": "[A15I]", "protein stability index": 1.96},
      {"variant": "YKYCDHENAAFKDVQLVLTVLLEE", "note": "[A15Q]", "protein stability index": 2.58},
      {"variant": "YKYCDHENAAFKDVPLVLTVLLEE", "note": "[A15P]", "protein stability index": 2.05},
      {"variant": "YKYCDHENAAFKDVRLVLTVLLEE", "note": "[A15R]", "protein stability index": 2.8},
      {"variant": "YKYCDHENAAFKDVALVLTDLLEE", "note": "[V20D]", "protein stability index": 2.21},
      {"variant": "YKYCDHENAAFKDVALVLTALLEE", "note": "[V20A]", "protein stability index": 1.06},
      {"variant": "YKYCDHENAAFKDVALVLTTLLEE", "note": "[V20T]", "protein stability index": 2.03},
      {"variant": "YKYCDHENAAFKDVALVLTPLLEE", "note": "[V20P]", "protein stability index": 2.23}
    ]}
  ]
}
